Laboratory results: patent US20030144209A1 (MASSACHUSETTS GERNERAL HOSPITAL, published 2003)
Square brackets hold non-standard residues; d marks the D form. Ends that are not written are not given here. * marks the point of attachment. Propionyl = CCC(=O)*

T1: human PTH-1 receptor (human, UniProt Q03431 27-593)
T1 sequence (looked up): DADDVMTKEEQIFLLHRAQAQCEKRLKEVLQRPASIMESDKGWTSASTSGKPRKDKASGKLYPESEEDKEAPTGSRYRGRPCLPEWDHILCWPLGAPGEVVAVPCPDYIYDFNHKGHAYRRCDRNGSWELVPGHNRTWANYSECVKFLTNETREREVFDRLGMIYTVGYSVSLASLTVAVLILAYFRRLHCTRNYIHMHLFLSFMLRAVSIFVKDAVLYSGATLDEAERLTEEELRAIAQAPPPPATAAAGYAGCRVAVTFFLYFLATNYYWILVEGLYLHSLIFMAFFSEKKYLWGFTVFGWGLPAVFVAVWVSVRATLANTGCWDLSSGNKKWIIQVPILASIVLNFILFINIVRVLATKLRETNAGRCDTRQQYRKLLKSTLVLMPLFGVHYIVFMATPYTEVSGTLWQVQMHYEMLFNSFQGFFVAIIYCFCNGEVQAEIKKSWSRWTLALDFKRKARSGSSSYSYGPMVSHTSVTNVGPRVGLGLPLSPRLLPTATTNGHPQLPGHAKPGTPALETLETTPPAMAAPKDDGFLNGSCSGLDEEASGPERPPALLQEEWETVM

B1: desamino-[Ala^1]hPTH(1-34)NH2 (peptide)
peptide: [Propionyl]VSEIQLMHNLGKHLNSMERVEWLRKKLQDVHNF-NH2
SMILES: CCC(=O)N[C@H](C(=O)N[C@@H](CO)C(=O)N[C@@H](CCC(=O)O)C(=O)N[C@H](C(=O)N[C@@H](CCC(N)=O)C(=O)N[C@@H](CC(C)C)C(=O)N[C@@H](CCSC)C(=O)N[C@@H](Cc1c[nH]cn1)C(=O)N[C@@H](CC(N)=O)C(=O)N[C@@H](CC(C)C)C(=O)NCC(=O)N[C@@H](CCCCN)C(=O)N[C@@H](Cc1c[nH]cn1)C(=O)N[C@@H](CC(C)C)C(=O)N[C@@H](CC(N)=O)C(=O)N[C@@H](CO)C(=O)N[C@@H](CCSC)C(=O)N[C@@H](CCC(=O)O)C(=O)N[C@@H](CCCNC(=N)N)C(=O)N[C@H](C(=O)N[C@@H](CCC(=O)O)C(=O)N[C@@H](Cc1c[nH]c2ccccc12)C(=O)N[C@@H](CC(C)C)C(=O)N[C@@H](CCCNC(=N)N)C(=O)N[C@@H](CCCCN)C(=O)N[C@@H](CCCCN)C(=O)N[C@@H](CC(C)C)C(=O)N[C@@H](CCC(N)=O)C(=O)N[C@@H](CC(=O)O)C(=O)N[C@H](C(=O)N[C@@H](Cc1c[nH]cn1)C(=O)N[C@@H](CC(N)=O)C(=O)N[C@@H](Cc1ccccc1)C(N)=O)C(C)C)C(C)C)[C@@H](C)CC)C(C)C
notes: Analog of human PTH(1-34) in which Ser1 is replaced by desamino alanine; also called [desamino Ala^1]PTH(1-34); desamino-[Ala^1] peptide
B2: desamino-[Gly^1]hPTH(1-34)NH2 (peptide)
peptide: [Ac]VSEIQLMHNLGKHLNSMERVEWLRKKLQDVHNF-NH2
notes: Analog of human PTH(1-34) in which Ser1 is replaced by desamino glycine; also called [desaminoGly^1]; PTH(1-34); desamino-[Gly^1] peptide

Key:
[1] = biological target: T1, human PTH-1 receptor; assay: cell-based or functional assay
[2] = biological target: T2, human PTH-2 receptor (human, UniProt P49190 25-550); assay: cell-based or functional assay
[3] = biological target: T2, human PTH-2 receptor; assay: competitive displacement of 125I-[Nle8,21]rPTH(1-34) from HPR2-7 cells expressing the human PTH-2 receptor
From the text: Cell layers were washed three times before solubilization for determination of cell-associated radioactivity.

T2 sequence (P49190 25-550): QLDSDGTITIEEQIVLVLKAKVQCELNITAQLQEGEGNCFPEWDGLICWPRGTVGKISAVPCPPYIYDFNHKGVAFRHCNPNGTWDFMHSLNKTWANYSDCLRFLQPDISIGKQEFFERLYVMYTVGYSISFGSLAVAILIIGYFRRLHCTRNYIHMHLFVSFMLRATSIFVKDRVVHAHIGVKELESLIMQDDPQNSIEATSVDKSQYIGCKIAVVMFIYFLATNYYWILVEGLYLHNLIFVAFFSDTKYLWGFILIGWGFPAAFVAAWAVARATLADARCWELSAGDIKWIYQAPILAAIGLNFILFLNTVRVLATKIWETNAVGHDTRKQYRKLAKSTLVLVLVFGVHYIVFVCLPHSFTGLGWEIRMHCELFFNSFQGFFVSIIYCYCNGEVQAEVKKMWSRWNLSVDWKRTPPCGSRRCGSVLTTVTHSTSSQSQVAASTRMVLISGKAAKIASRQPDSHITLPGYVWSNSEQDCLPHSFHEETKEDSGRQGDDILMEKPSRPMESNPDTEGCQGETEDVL

| Molecule | phospholipase C (PLC) activity in HKRK-B7 cells at 1000 nM (% of the hPTH(1-34) maximum) [1] | AC activation relative to hPTH(1-34) [2] | AC activation relative to hPTH(1-34) [1] | fold higher apparent binding affinity relative to hPTH(1-34) [3] | EC50 of AC activation, fold lower than hPTH(1-34) [2] | EC50 of adenylyl cyclase (AC) activation [2] | PLC stimulation relative to 1000 nM hPTH(1-34) [2] | maximal AC response relative to hPTH(1-34) [2] | fold decrease in AC activity relative to the amino-bearing peptide [1] |
| --- | --- | --- | --- | --- | --- | --- | --- | --- | --- |
| [Gly^1]hPTH(1-34)NH2 (from UniProt P01270 32-65) (peptide) | 50 |  |  |  |  |  |  |  |  |
| VSEIQLMHNLGKHLNSMERVEWLRKKLQDVHNF-NH2 (peptide, UniProt P01270 33-65, looked up) [hPTH(2-34)] |  | ≤ 10 fold | ≤ 10 fold |  |  |  |  |  |  |
| B1 |  |  |  | 10 fold | 3 fold | 10 nM | 50 % greater | 2 fold | 10 fold |
| B2 |  |  |  | 10 fold | 3 fold | 10 nM | 50 % greater | 2 fold | 10 fold |
